# Literature values, collected in PMC6958331.
# pKd: −log10 of the molar value.
# Biological target: hemopexin (Homo sapiens) (UniProt P02790)
# Sequence of UniProt P02790 (P02790 24-462): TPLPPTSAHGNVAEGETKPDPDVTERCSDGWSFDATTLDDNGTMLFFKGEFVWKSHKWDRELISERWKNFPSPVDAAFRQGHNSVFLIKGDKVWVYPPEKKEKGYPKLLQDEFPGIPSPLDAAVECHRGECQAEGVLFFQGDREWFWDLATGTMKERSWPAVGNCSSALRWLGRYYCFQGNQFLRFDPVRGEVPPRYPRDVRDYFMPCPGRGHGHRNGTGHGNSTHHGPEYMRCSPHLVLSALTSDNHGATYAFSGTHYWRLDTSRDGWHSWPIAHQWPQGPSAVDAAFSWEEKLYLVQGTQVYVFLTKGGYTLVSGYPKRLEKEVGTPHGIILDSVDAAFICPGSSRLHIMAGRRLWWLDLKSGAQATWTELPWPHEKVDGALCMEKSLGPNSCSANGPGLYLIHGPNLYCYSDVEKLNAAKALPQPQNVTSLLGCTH
substance,measurement,value
LRP1/CD91 (from UniProt Q07954),pKd,8.40
